This is an account of results in patent US20100303814A1 (VIVENTIA BIOTECHNOLOGIES, published 2010).

Experiment [1] concerns the target T1, PSPep1 (Biotin TARIRAVGLLTVISK) (human).
T1 construct: Synthetic peptide, part of the immunogen of the commercial anti-PSCA antibodies, 1823.9 amu
T1 peptide: Biotin-TARIRAVGLLTVISK
As to the kind of experiment: ELISA on peptide-coated plate. How it is done: (§1) Peptide solutions were diluted 1-in-100 with Hank's buffered saline solution (HBSS) containing 0.5% formaldehyde. 100 μL of diluted peptide solution was distributed to each well in a 96-well plate. The plates were incubated at room temperature for 1 hour. The supernatant was removed and the plates were placed uncovered in a 37° C. incubator for 16-18 hours. The peptide-coated plates were placed in plastic bags and stored at 2-8° C. until required.
(§2) The plates were washed as previously described with the wash buffer (PBS containing 0.5% Tween 20). The plates were incubated with 1:6000 dilution of anti-human IgG-HRP for one hour at room temperature. The plates were washed as previously described. 100 μL of TMB substrate (TMB peroxidase substrate KPL cat# 50-76-00) was added to each well and incubated for 5-10 minutes in the dark. The reaction was terminated by adding 100 μL of 1M phosphoric acid to each well. The optical density was measured at 450 nm using an ELISA plate reader.
On the technique in general: An ELISA detects its analyte on a solid surface through an enzyme-linked reagent.

The target of experiment [2] is T2, PSPep3 (Biotin LCNASGAHALQ), negative peptide (human).
T2 construct: Synthetic peptide derived from PSCA, 1306.59 amu; also called PSPep3 (Negative)
T2 peptide: Biotin-LCNASGAHALQ
As to the kind of experiment: ELISA on peptide-coated plate. How it is done:
as §1, §2

The target of experiment [3] is T3, antigen bound by VB1-213 on A-375 tumor cells.
T3 construct: Placeholder target for the KD measured on whole A-375 cells; also called A-375 carcinoma cells
Kind of experiment: flow cytometry saturation curve on A-375 cells, Lineweaver-Burk method. As to the method: Flow cytometry was used to assess binding affinity (C. A. Benedict, A. J. MacKrell, W. F. Anderson, J. Immunol. Methods 201, 223 (1997)). A range of antibody concentrations were tested against a fixed number of tumor cells (A-375) for 2 hours to obtain a saturation curve. Values and graphical analysis were generated using Sigma Plot (Jandel Scientific, San Rafael, Calif.). The inverse of the determined median fluorescence was plotted as a function of the inverse of antibody concentration to determine KD by the Lineweaver-Burk method.
A general note: A flow cytometer gives signals particle by particle.

For experiment [4], the target named is T4, prostate stem cell antigen (PSCA) (human, UniProt O43653 12-83).
T4 sequence: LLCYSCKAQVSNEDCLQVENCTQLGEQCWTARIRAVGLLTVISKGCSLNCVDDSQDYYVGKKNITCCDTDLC
Kind of experiment: immunoprecipitation with VB1-213, in-solution digest, mass spectrometry. How it is done:
A pre-clearing step using protein-G sepharose alone was the first step in the purification of the antigen prior to the addition of the antibody. In certain cases, pre-clearing was performed twice to add more stringency to the assay. A total of 50 μg of antibody was used as the precipitating agent in the mixture. The antigen-antibody mixtures were nutated overnight at 4° C. using buffer conditions that mimicked physiological conditions. Care was taken to ensure that protease inhibitors were used in every step of the antigen isolation process.
The extracted peptides were concentrated and desalted using μ-C18 columns and used for MS analysis. Two distinct proteins were identified, in all three cell lines, as “Mixture1”, consisting of HnRNPG+Prostate stem cell antigen (PSCA). HnRNPG and PSCA were identified as a “Mixture1”, each with 76% and 95% sequence coverage and a highly significant combined score of 413. The sequence coverage and peptides corresponding to PSCA are shown in FIGS. 18 and 19 and Table 7 (SEQ ID NO: 18 to 22). The peptides isolated by this method corresponding to HnRNPG as shown in Table 8 (SEQ ID NO: 72 to 110).

Where no end group is shown, it is not given here. The star is where a group is joined. Biotin = O=C1N[C@H]2[C@H](CS[C@H]2CCCCC(=O)*)N1

B1: VB1-213 monoclonal antibody (antibody, human IgG1, V domains shown)
VH: EVQLLESGGGLVQPGGSLRLSCAASGFTFRSYAMSWVRQAPGKGLEWVSTISGRGVTTYYADSVKGRFTISRDNSKNTLYLQMNSLRADDTALYYCAKDRTRYYGMDVWGQGTTVTVSS
VL: SYELTQPPSVSVSPGQTASITCSGNKLGDKYACWYQQKSGQSPVLVIYQDSKRPSGIPERFSGSNSGNTATLTISGTQALDEADYYCQAWDNSTAVFGGGTKLTVLG
notes: Human IgG1, lambda monoclonal antibody from a hybridoma (lymph node cells of an ovarian cancer patient fused with MFP-2); no constant regions for the IgG as tested
One may read the Kd as the equilibrium constant for the complex coming apart. With B1, the binding result in experiment [1] is “no binding”; in experiment [2] it was “no binding”; in experiment [4], “binds”. Moreover, in experiment [3], binding was put at a Kd of 627 nM.
